± gives the standard deviation of the averaged measurements.
tested on: Saccharomyces cerevisiae; assay: protein stability index of tFT-peptide fusion (C-terminal peptide) (PSI (0-1 scale)); higher = more stable (slower turnover); details: genetic background: das1 deletion; temperature: 30 C
Experimental: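 MPS profiling in S. cerevisiae of the yeast C-terminome library: the last 12 aa of each annotated ORF are fused to the C-terminus of a sfGFP-mCherry timer, after a GGGS linker. Cells are FACS-sorted into 8 mCherry/sfGFP bins and deep-sequenced. PSI runs from 0 (unstable) to 1 (stable); wild type and das1Δ backgrounds, two technical replicates each.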

Sequence | protein stability index
GKEHRFGLHIRS [DPH6 C-terminal 12 aa] | 0.6887 ± 0.0022
GKLAEILKPVFQ [GRX2 C-terminal 12 aa] | 0.706 ± 0.011
GKQKQLLFHIGV [HEL2 C-terminal 12 aa] | 0.6865 ± 0.0042
GKQLLSPMGRAF [TKL2 C-terminal 12 aa] | 0.679 ± 0.022
GLEHSDPFSTFY [DBF2 C-terminal 12 aa] | 0.71206 ± 0.0003
GLNEVTRLIKGL [HTS1 C-terminal 12 aa] | 0.695 ± 0.011
GLRYDMVHKLIS [SLH1 C-terminal 12 aa] | 0.688 ± 0.025
GMISKSLKIPKP [CHO1 C-terminal 12 aa] | 0.661 ± 0.0085
GNIVSQDLLDLF [APL2 C-terminal 12 aa] | 0.724 ± 0.034
GPSVMCTLYLTF [ARE2 C-terminal 12 aa] | 0.5849 ± 0.0035
GQALLDQFAKFK [LSC1 C-terminal 12 aa] | 0.721 ± 0.058
GSNELLSILHRK [DCP2 C-terminal 12 aa] | 0.73 ± 0.018
GSSVPLDLTLFT [VRP1 C-terminal 12 aa] | 0.728 ± 0.012
GSVCFIMDYFTG [VPS62 C-terminal 12 aa] | 0.706 ± 0.013
GSYATRAYGQKK [FDH1 C-terminal 12 aa] | 0.694 ± 0.011
GWDRLVEARSQI [EMW1 C-terminal 12 aa] | 0.7268 ± 0.0039
HAERERENMIYD [YGL108C C-terminal 12 aa] | 0.7122 ± 0.0035
HAQKRVSNASAR [SKI6 C-terminal 12 aa] | 0.6983 ± 0.0028
HCLSNSASHSCG [YGR018C C-terminal 12 aa] | 0.675 ± 0.014
HFNSSSPQKVEF [LSM4 C-terminal 12 aa] | 0.721 ± 0.012
HGHHNSSTSGHK [PBP1 C-terminal 12 aa] | 0.694 ± 0.015

Sequence | protein stability index
HKTNLTRGSFYS [YIR020W-A C-terminal 12 aa] | 0.70525 ± 6.6e-05
HLGDPLWNFSVE [TMA20 C-terminal 12 aa] | 0.7244 ± 0.0043
HLNESVYSKPLP [YIL028W C-terminal 12 aa] | 0.6938 ± 0.0028
HPNIDALLKKTE [MST27 C-terminal 12 aa] | 0.686 ± 0.014
HSNTLKRKIEQV [PUS4 C-terminal 12 aa] | 0.7252 ± 0.0013
HTRRAFLIPFVF [TSC13 C-terminal 12 aa] | 0.547 ± 0.02
HVAPYAIIPFII [DFG10 C-terminal 12 aa] | 0.724 ± 0.0075
HWRSVYDEFGEL [APE1 C-terminal 12 aa] | 0.721 ± 0.01
IAEEIISMFAEN [YNR064C C-terminal 12 aa] | 0.692 ± 0.031
IALAEHRVERSN [CLB3 C-terminal 12 aa] | 0.718 ± 0.05
IAPIRIYKITKQ [EFM3 C-terminal 12 aa] | 0.686 ± 0.028
IAREIFHNVTNF [SEC39 C-terminal 12 aa] | 0.724 ± 0.025
IARLEKLLSGGV [LEA1 C-terminal 12 aa] | 0.692 ± 0.017
IAVNYGQKDLIE [BRR1 C-terminal 12 aa] | 0.697 ± 0.033
IDLFRDAYNHEN [UPS2 C-terminal 12 aa] | 0.7353 ± 0.0064
IDMLKMSNAEEY [YLR012C C-terminal 12 aa] | 0.672 ± 0.015
IEIVKDAKRKGY [MRP21 C-terminal 12 aa] | 0.70154 ± 7.3e-05
IEKNHAKFTDLT [CSH1 C-terminal 12 aa] | 0.7074 ± 0.0034
IFFILYTLFKLF [SFT1 C-terminal 12 aa] | 0.422 ± 0.0091
IFLNDVYFNLMV [YPR126C C-terminal 12 aa] | 0.728 ± 0.016
IFNATASNPFGF [SLA1 C-terminal 12 aa] | 0.738 ± 0.029

Sequence | protein stability index
IFVFFVIWVLVN [SED5 C-terminal 12 aa] | 0.209 ± 0.019
IGEFADNVMPLA [PRY2 C-terminal 12 aa] | 0.709 ± 0.026
IGISPSQNKWEK [REX3 C-terminal 12 aa] | 0.728 ± 0.02
IIRDFLIEKGFI [YNL320W C-terminal 12 aa] | 0.731 ± 0.024
IKALQDSLFKDV [NUP188 C-terminal 12 aa] | 0.718 ± 0.013
IKKGTPNNIAFL [YJL197C-A C-terminal 12 aa] | 0.7027 ± 0.0063
IKKRKVQNRAMS [YOL038C-A C-terminal 12 aa] | 0.701 ± 0.017
IKTDSVHELLKK [MFM1 C-terminal 12 aa] | 0.704 ± 0.018
ILGNYRDIFKQA [RGA2 C-terminal 12 aa] | 0.726 ± 0.014
ILISTIYAHCSS [HFD1 C-terminal 12 aa] | 0.577 ± 0.0076
ILLTPNNHGEMK [BDH1 C-terminal 12 aa] | 0.689 ± 0.03
ILPIHQEDPANR [MEP1 C-terminal 12 aa] | 0.701 ± 0.011
ILTAEKMRGNGN [RRP4 C-terminal 12 aa] | 0.686 ± 0.033
INFHSGSIFDAC [ENV11 C-terminal 12 aa] | 0.717 ± 0.029
INKDMTKKKMKF [MFG1 C-terminal 12 aa] | 0.689 ± 0.029
IPKIPKIVNGFK [DCS1 C-terminal 12 aa] | 0.694 ± 0.012
IQAKLKISVHDI [BEM1 C-terminal 12 aa] | 0.674 ± 0.0062
IQKLNKVLEDSI [ATP5 C-terminal 12 aa] | 0.6748 ± 0.0023
IRAAGGVVELIA [RPL28 C-terminal 12 aa] | 0.658 ± 0.0023
IREFLEEIVDTQ [SUS1 C-terminal 12 aa] | 0.725 ± 0.081
ISISHSAVPNIV [YAL069W C-terminal 12 aa] | 0.678 ± 0.0075

Sequence | protein stability index
ISLVFLWVSIEV [CSM4 C-terminal 12 aa] | 0.157 ± 0.018
ISVYCGTTLEVM [TFC8 C-terminal 12 aa] | 0.44 ± 0.016
ITEVNVSLEEKL [FHL1 C-terminal 12 aa] | 0.6842 ± 0.0013
ITQARANTWLVV [YOR024W C-terminal 12 aa] | 0.654 ± 0.02
ITRDESTATYKY [RTT101 C-terminal 12 aa] | 0.695 ± 0.0095
ITRTRLDSFVKT [YBR072C-A C-terminal 12 aa] | 0.696 ± 0.038
ITTKRSLCSSKD [PEX25 C-terminal 12 aa] | 0.673 ± 0.015
IVTEWVKKPCLC [MUP3 C-terminal 12 aa] | 0.546 ± 0.013
IYQPSRNRLVRY [YBR076C-A C-terminal 12 aa] | 0.707 ± 0.025
KAFVEKLNSKKD [YBT1 C-terminal 12 aa] | 0.707 ± 0.026
KAIEYFEEYQCW [FRE2 C-terminal 12 aa] | 0.722 ± 0.048
KAQRSIWGKKSQ [ERV46 C-terminal 12 aa] | 0.6703 ± 0.0035
KDDTPEDNLEDK [VBA5 C-terminal 12 aa] | 0.6969 ± 0.0021
KDNSVGKILNST [BOP3 C-terminal 12 aa] | 0.667 ± 0.018
KDSELNIKSSKL [STR3 C-terminal 12 aa] | 0.78159 ± 0.00043
KEDPDLRQSYQG [MGS1 C-terminal 12 aa] | 0.693 ± 0.016
KEESGTTSLPTI [GGA1 C-terminal 12 aa] | 0.723 ± 0.02
KESPANDQASNE [MLP2 C-terminal 12 aa] | 0.688 ± 0.0091
KETFIQVWEKQE [SAD1 C-terminal 12 aa] | 0.663 ± 0.0072
